Data: patent publication US20160215035A1
Where two headings read alike, the source gives them in different places.

Legend:
Assay in all cases: cell-based or functional assay
Type I IL-4R = Type I IL-4R (UniProt P24394)
IL-4Rα [1] = biological target: IL-4Rα (UniProt P24394)
IL-4Rα [2] = biological target: IL-4Rα (UniProt P24394); remark: listed apart in the source

Chain of UniProt P24394 (P24394 26-825 limits assumed): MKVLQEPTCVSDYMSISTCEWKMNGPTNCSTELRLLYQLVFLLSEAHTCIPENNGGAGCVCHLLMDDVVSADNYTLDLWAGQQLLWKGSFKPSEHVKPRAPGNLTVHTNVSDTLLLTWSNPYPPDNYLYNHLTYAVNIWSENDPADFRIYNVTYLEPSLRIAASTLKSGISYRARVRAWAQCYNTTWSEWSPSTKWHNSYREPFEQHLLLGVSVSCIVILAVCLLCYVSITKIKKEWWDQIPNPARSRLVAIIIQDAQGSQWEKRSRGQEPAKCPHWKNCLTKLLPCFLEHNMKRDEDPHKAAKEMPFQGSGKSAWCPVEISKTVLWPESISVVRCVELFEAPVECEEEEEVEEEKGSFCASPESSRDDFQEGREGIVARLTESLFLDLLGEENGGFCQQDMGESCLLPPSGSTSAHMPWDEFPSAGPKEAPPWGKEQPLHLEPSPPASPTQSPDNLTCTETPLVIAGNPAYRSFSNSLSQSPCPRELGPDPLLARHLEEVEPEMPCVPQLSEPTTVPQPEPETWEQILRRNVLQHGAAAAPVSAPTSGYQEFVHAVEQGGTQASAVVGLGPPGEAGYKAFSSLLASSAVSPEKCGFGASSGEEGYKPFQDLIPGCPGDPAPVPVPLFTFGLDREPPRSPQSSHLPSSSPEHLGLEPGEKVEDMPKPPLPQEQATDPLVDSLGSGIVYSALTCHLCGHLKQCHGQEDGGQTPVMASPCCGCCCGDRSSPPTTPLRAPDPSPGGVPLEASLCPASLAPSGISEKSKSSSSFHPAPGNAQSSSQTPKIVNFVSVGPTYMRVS

| Molecule | IC50, inhibition of [3H]-thymidine incorporation in HH cells (48 h) (Type I IL-4R) [ng/mL] | IC50 (ng/mL), cell count by trypan blue exclusion, KCCL871 cells (IL-4Rα [1]) [ng/mL] | IC50 (ng/mL), cell count by trypan blue exclusion, KCCOR891 cells (IL-4Rα [1]) [ng/mL] | IC50 (ng/mL), cell count by trypan blue exclusion, KCCTCM901 cells (IL-4Rα [1]) [ng/mL] | IC50 (ng/mL), cell count by trypan blue exclusion, YCUM862 cells (IL-4Rα [1]) [ng/mL] | IC50 (ng/mL), cell count by trypan blue exclusion, YCUM911 cells (IL-4Rα [1]) [ng/mL] | IC50 (ng/mL), cell count by trypan blue exclusion, YCUT891 cells (IL-4Rα [1]) [ng/mL] | IC50 (ng/mL), cell count by trypan blue exclusion, KCCL871 cells (IL-4Rα [2]) [ng/mL] | IC50 (ng/mL), cell count by trypan blue exclusion, KCCOR891 cells (IL-4Rα [2]) [ng/mL] | IC50 (ng/mL), cell count by trypan blue exclusion, KCCTCM901 cells (IL-4Rα [2]) [ng/mL] | IC50 (ng/mL), cell count by trypan blue exclusion, YCUM862 cells (IL-4Rα [2]) [ng/mL] | IC50 (ng/mL), cell count by trypan blue exclusion, YCUM911 cells (IL-4Rα [2]) [ng/mL] | IC50 (ng/mL), cell count by trypan blue exclusion, YCUT891 cells (IL-4Rα [2]) [ng/mL] | IC50, 5-day cell viability assay on Daudi cells, with 100x excess IL-4 (IL-4Rα [2]) [ng/mL] | IC50, 5-day cell viability assay on Daudi cells, without excess IL-4 (IL-4Rα [2]) [ng/mL] | IC50, 5-day cell viability assay on U 251 cells, with 100x excess IL-4 (IL-4Rα [2]) [ng/mL] | IC50, 5-day cell viability assay on U 251 cells, without excess IL-4 (IL-4Rα [2]) [ng/mL] | IC50, colony formation assay on U 251 cells (10 days) (IL-4Rα [2]) [ng/mL] | IC50, killing of Daudi cells (viable cell count, trypan blue exclusion, 5 days) (IL-4Rα [2]) [ng/mL] | IC50, killing of U 251 cells (viable cell count, trypan blue exclusion, 5 days) (IL-4Rα [2]) [ng/mL] |
| --- | --- | --- | --- | --- | --- | --- | --- | --- | --- | --- | --- | --- | --- | --- | --- | --- | --- | --- | --- | --- |
| cpIL4-PE (from UniProt P11439 278-633) | 362 | 1.5 | 9 | 0.7 | 0.6 | 4.5 | 8 |  |  |  |  |  |  |  |  |  |  |  |  |  |
| cpIL-4BAD fusion protein (protein) MDTTEKETFCRAATVLRQFYSHHEKDTRCLGATAQQFHRHKQLIRFLKRLDRNLWGLAGLNSCPVKEANQSTLENFLERLKTIMREKYSKCSSGGNGGHKCDITLQEIIKTLNSLTEQKTLCTELTVTDIFAASGSFQIPEFEPSEQEDSSSAERGLGPSPAGDGPSGSGKHHRQAPGLLWDASHQQEQPTSSSHHGGAGAVEIRSRHSAYPAGTEDDEGMGEEPSPFRGRSRAAPPNLWAAQRYGRELRRMSDEFVDSFKKGLPRPKSAGTATQMRQSSSWTRVFQSWWDRNLGRGSSAPSQ |  |  |  |  |  |  |  | 0.5 | 0.15 | 1 | 1.1 | 0.2 | 11 | > 1000 | 0.3 | > 1000 | 0.3 | 5 | 0.1 | 0.6 |
